Legend:
[1] = target: T1, ScRPA (Rfa1-Rfa2-Rfa3 heterotrimer, wild type) (Saccharomyces cerevisiae, UniProt P22336;P26754;P26755 1-621;1-273;1-122); test: FRET titration; stoichiometric, X0 = 8.7 ± 0.3 nM at 10 nM DNA (1:1); EMSA: 20 mM Tris pH 7.5, 150 mM NaCl, 10 mM MgCl2, 0.01% Tween-20, room temperature, 30 min; MST: MST-binding buffer (composition not in material), room temperature, 20 min; FRET: reaction buffer not given, 10 nM DNA; settings: protein: recombinant; tags: TEV-cleavable His6 on Rfa1; copies: 1;1;1; label: 5' Cy5, 3' Cy3
[2] = target: T1, ScRPA (Rfa1-Rfa2-Rfa3 heterotrimer, …); test: MST; apparent EC50; Hill slope 0.9 ± 0.1; EMSA: 20 mM Tris pH 7.5, 150 mM NaCl, 10 mM MgCl2, 0.01% Tween-20, room temperature, 30 min; MST: MST-binding buffer (composition not in material), room temperature, 20 min; FRET: reaction buffer not given, 10 nM DNA; settings: protein: recombinant; tags: TEV-cleavable His6 on Rfa1; copies: 1;1;1; label: 5' Cy5
[3] = target: T1, ScRPA (Rfa1-Rfa2-Rfa3 heterotrimer, …); test: FRET titration; 10 nM DNA; Hill fit; panel in Supplementary Fig. 14 gives 38.7 ± 0.8; EMSA: 20 mM Tris pH 7.5, 150 mM NaCl, 10 mM MgCl2, 0.01% Tween-20, room temperature, 30 min; MST: MST-binding buffer (composition not in material), room temperature, 20 min; FRET: reaction buffer not given, 10 nM DNA; settings: protein: recombinant; tags: TEV-cleavable His6 on Rfa1; copies: 1;1;1; label: 5' Cy5, Cy3 after nt 29
DBD-A (Rfa1) = DBD-A (Rfa1) (Saccharomyces cerevisiae, UniProt P22336 178-294); test: MST; EC50; EMSA: 20 mM Tris pH 7.5, 150 mM NaCl, 10 mM MgCl2, 0.01% Tween-20, room temperature, 30 min; MST: MST-binding buffer (composition not in material), room temperature, 20 min; FRET: reaction buffer not given, 10 nM DNA; settings: protein: recombinant; tags: GST removed by 3C cleavage; label: Cy5 (5')
DBD-A S178D = DBD-A S178D (Saccharomyces cerevisiae, UniProt P22336 178-294, S178D); test: MST; S178D did not affect dT7 binding; EMSA: 20 mM Tris pH 7.5, 150 mM NaCl, 10 mM MgCl2, 0.01% Tween-20, room temperature, 30 min; MST: MST-binding buffer (composition not in material), room temperature, 20 min; FRET: reaction buffer not given, 10 nM DNA; settings: protein: recombinant; tags: GST removed by 3C cleavage; label: Cy5 (5')
Chain of DBD-A S178D (P22336 178-294 S178D): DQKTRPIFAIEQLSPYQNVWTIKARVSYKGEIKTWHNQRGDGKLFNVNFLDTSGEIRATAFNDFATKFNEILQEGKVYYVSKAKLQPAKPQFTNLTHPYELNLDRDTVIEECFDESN

T1 sequence (P22336 whole entry, chain 1 of 3): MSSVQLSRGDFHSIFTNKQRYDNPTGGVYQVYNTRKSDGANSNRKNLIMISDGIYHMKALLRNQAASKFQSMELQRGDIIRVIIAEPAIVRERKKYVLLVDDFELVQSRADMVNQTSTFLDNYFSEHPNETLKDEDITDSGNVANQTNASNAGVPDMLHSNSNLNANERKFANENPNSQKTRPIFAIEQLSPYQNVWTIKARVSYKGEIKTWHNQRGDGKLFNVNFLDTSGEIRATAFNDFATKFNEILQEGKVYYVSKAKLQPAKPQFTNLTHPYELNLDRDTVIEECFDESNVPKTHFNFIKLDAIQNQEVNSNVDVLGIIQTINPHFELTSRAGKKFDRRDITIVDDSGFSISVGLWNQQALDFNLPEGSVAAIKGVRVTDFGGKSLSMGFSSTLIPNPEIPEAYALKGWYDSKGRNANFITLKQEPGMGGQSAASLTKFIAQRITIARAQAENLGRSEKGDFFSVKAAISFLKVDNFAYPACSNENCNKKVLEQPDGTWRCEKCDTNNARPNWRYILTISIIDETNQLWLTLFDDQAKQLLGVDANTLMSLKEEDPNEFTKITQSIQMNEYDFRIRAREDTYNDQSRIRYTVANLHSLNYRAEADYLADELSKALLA
T1 sequence (P26754 whole entry, chain 2 of 3): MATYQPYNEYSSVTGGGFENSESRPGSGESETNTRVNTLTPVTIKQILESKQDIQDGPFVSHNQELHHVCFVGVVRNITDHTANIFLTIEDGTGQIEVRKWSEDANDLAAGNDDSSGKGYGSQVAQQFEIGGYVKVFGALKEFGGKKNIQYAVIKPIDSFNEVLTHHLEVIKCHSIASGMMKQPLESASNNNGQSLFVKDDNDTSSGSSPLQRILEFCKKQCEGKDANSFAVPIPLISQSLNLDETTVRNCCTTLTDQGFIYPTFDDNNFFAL
T1 sequence (P26755 whole entry, chain 3 of 3): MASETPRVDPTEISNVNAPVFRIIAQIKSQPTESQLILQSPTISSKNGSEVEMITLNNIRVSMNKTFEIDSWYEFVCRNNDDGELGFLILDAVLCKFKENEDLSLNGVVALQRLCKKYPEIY
Chain of DBD-A (Rfa1) (P22336 178-294): as the sequence (P22336 178-294 S178D) above, with D1S counted along it

Q: Does TTTTTTTTTTTTTTTTTTTTTTTTTTTTTT (ssDNA) [dT30 (FRET)] bind [1]?
A: Result: binds

B1: dT100 (Cy5) (ssDNA)
DNA: TTTTTTTTTTTTTTTTTTTTTTTTTTTTTTTTTTTTTTTTTTTTTTTTTTTTTTTTTTTTTTTTTTTTTTTTTTTTTTTTTTTTTTTTTTTTTTTTTTTT
Q: Which “apparent K (half saturation)” value [2] does the source give for B1 here?
A: The value was roughly 20 nM.

B2: dT90(1-30) (ssDNA)
DNA: TTTTTTTTTTTTTTTTTTTTTTTTTTTTTTTTTTTTTTTTTTTTTTTTTTTTTTTTTTTTTTTTTTTTTTTTTTTTTTTTTTTTTTTTTT
modifications: internal Cy3 in backbone
Q: How did the Kd [3] turn out when B2 was run?
A: The Kd was 39.3 ± 0.9 nM.

Q: TTTTTTT (ssDNA) [dT7 (Cy5)] was tested. Which “apparent K (half saturation)” value (DBD-A (Rfa1)) did it give?
A: Its value is 309 ± 18 nM.

Q: Does TTTTTTT (ssDNA) [dT7 (Cy5)] bind (DBD-A S178D)?
A: Result: binds

— PMC6303327, “A structural and dynamic model for the assembly of Replication Protein A on single-stranded DNA”
